B1: library; numbered along this chain (parent)
chain: MAAAAAAAAEQQSSNGPVKKSMREKAVERRSVNKEHNSNFKAGYIPIDEDRLHKTGLRGRKGNLAICVIILLFILAVINLIITLVIWAVIRIGPNGCDSMEFHESGLLRFKQVSDMGVIHPLYKSTVGGRRNENLVITGNNQPIVFQQGTTKLSVENNKTSITSDIGMQFFDPRTQNILFSTDYETHEFHLPSGVKSLNVQKASTERITSNATSDLNIKVDGRAIVRGNEGVFIMGKTIEFHMGGNMELKAENSIILNGSVMVSTTRLPSSSSGDQLGSGDWVRYKLCMCADGTLFKVQVTSQNMGCQISDNPCGNTH

Variants of: B1
Assay: SGCB cell-surface expression functional score (HA stain, bin4 vs bin1, normalised to synonymous) (log10 ratio); higher = more cell-surface SGCB (functional)
Outline: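 Codon-saturation libraries of HA-tagged, YFP-fused human beta-sarcoglycan were lentivirally transduced at MOI <0.1 into HEK293 cells stably expressing alpha-, gamma- and delta-sarcoglycan. YFP-positive cells were sorted after 72 hours, grown 5–7 days, stained on ice with Alexa Fluor 647 anti-HA, fixed, sorted into four 5% intensity bins and amplicon-sequenced. The functional score is the log ratio of highest-bin to lowest-bin variant frequency, taken as the median over codons and duplicate transductions. Synonymous variants were scaled per section to mean 0, SD 0.5.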

SGCB cell-surface expression functional score (log10), by site and new letter:
I256: E 0.36 | K 0.15 | G 0.26 | V 0.31 | N 1.09 | S 0.62 | R 0.05 | H 0.01 | M 0.29 | T 0.37 | D 0.02 | F 0.01 | L 0.37 | A -0.2 | W -0.179 | P -0.12 | Y 0.42 | C -0.43 | Q -0.26
S260: K -0.81 | L -0.22 | D -0.04 | G 0.77 | C 0.5 | Q -0.24 | A 0.52 | N 0.25 | Y -0.87 | W 0.61 | E -0.09 | V 0.01 | M 0.98 | P 0.71 | H 0.83 | I -0.71 | R 0.87 | T 0.41 | F 0.4
G259: T 0.55 | W -1.53 | F -0.46 | M -1.05 | L -0.06 | C -0.44 | R -0.34 | Y -1.22 | A 0.9 | P -0.37 | V 0.07 | H 0.33 | I 0.63 | E -1.29 | D -1.69 | K -1.06 | S 0.28 | Q 0.7 | N -0.51
S254: R 0.12 | I 0.12 | Q 0.92 | Y 0.7 | N 0.66 | G 0.08 | F 0.96 | L 0.74 | H 0.41 | V 0.02 | K 0.05 | W 0.38 | A 0.25 | C 0.55 | D -0.152 | T 0.67 | E 1.37 | P -0.77 | M 0.79
M247: N -0.35 | E -0.44 | W -1.52 | A 0.65 | S 0.26 | C 0.91 | P -1.08 | F 1.03 | R -0.83 | K -1.56 | Q -0.04 | D -1.1 | V 0.47 | L 0.8 | T -0.51 | H 0.26 | G 0.38 | I 0.34 | Y 1.22
L249: C 0.2 | S 0.16 | I 0.85 | A 0.55 | G 0.21 | H -1.14 | Y 0.23 | Q -0.07 | F 0.71 | V 0.75 | D -1.06 | N -0.2 | E -0.69 | K -1.29 | T 0 | W 0.63 | M -0.1 | P -0.41 | R -0.27
I255: Y -1.08 | M 0.52 | V 0.07 | P -0.82 | F 0.37 | A 0.2 | G -1.03 | T -0.76 | N -1.5 | H -1.4 | K -0.13 | L 0.57 | Q -0.37 | W -1.77 | E -0.85 | D -0.53 | R -0.91 | C 0.39 | S -0.08
E248: A 0.29 | T 0.54 | N 0.44 | G 0.62 | M 0 | K 0.73 | F 0.95 | I 0.78 | P 0.43 | C -0.97 | S 0.4 | H 0.87 | Y 0.41 | V 0.52 | R 0.67 | L 0.48 | W 0.116 | D 0.58 | Q -0.13
L257: D -0.5 | T -0.91 | Y 0.3 | G -0.1 | C -0.27 | M 0 | F 0.54 | V 0.45 | N -0.61 | I 0.12 | H -0.81 | R -1.52 | K -0.27 | S -1.19 | W 0.82 | E -0.43 | Q -1.3 | P -0.89 | A -0.23
A251: P 0.04 | T 0.52 | R -1.16 | W -1.85 | Y -1.33 | K -1.77 | S 0.32 | L -1.06 | C 0.59 | F -0.98 | H 0.44 | D -0.84 | I -0.87 | M 0 | Q -2.02 | E -1.22 | V 0.46 | N 0.23 | G 0.05
V261: T 0.23 | Q -1.12 | Y -1.15 | D 0.41 | P -0.15 | S -0.04 | G -0.18 | W 0.306 | R -0.69 | N -0.63 | K -1.55 | A -0.02 | L 0.42 | I 0.29 | H -1.2 | C 0.48 | M -0.12 | E 0.05 | F -1.31
N253: H 0.8 | M -0.117 | D 0.58 | R 0.29 | K 0.46 | G 0.43 | E 0.76 | L 0.96 | T 0.39 | I 0 | C 0.55 | Y 0.45 | F 0.83 | P -0.52 | Q 1.07 | W 0.29 | A 0.49 | S 0.59 | V 0.9
V263: G -0.03 | C 1 | F 0.35 | I 0.77 | R -0.48 | L 0.09 | T 0.4 | N 0.66 | K -0.87 | H 0.31 | Q -1.36 | D -0.53 | M -1.03 | S -0.39 | A -0.4 | P -1.18 | E -0.52
E252: Y 1.05 | Q 0.64 | N 1.08 | T 0.88 | C 0.5 | S 0.51 | A 0.53 | W 0.117 | V 0.88 | I 1.01 | L 0.88 | M 0.8 | D -0.26 | P 0.32 | G 0.39 | F 1.22 | H 1.12 | K 0.57 | R 0.34
N246: T 0.94 | P 0.63 | M 0.42 | Q 0.45 | I 0.32 | H 0.84 | S -0.19 | R 0.2 | V 0.39 | K -0.01 | W -0.217 | Y 0.19 | L 0.49
K250: E 0.06 | I 1 | D 0.83 | H 0.87 | V 0.37 | Y 1.05 | N 0.48 | A 0.91 | Q 0.65 | M 0.98 | L 0.54 | C 0.5 | S 0.33 | F 1.23 | G 0.55 | R 0.59 | P -0.39 | T 0.83 | W 0.02
M262: H 1.32 | Q 0.93 | D -0.81 | Y 0.79 | R 0.7 | A 0.37 | C 0.37 | L 0.57 | W 0.08 | G 0.53 | N 0 | P -0.34 | K 0.79 | V 0.78 | F 0.95 | E 0.65 | I -0.11 | S 0.7 | T 0.19
N258: F -0.09 | L 0.61 | T -0.05 | C 0.74 | K 0.55 | W 0 | I -0.1 | E 0 | A 0.1 | S 0.66 | Q 0.63 | V 0.3 | R 0.61 | M 0.62 | G 0.43 | D 0.39 | P -1.25 | Y 0.03 | H 0.33

Source: the supplement of paper PMC10266784
